Reference: article PMC2603606

How the values were obtained:
Experiment in all cases: crystal structure
[1] = target: NITR10 (D50N) V region protein (channel catfish (Ictalurus punctatus))
[2] = target: NITR10 V region protein (novel immune-type receptor 10, Ig V domain) (channel catfish (Ictalurus punctatus))
[3] = target: NITR11 (N50D) V region protein (channel catfish (Ictalurus punctatus))
[4] = target: NITR11 V domain and membrane proximal stalk region, disulfide-linked homodimer (channel catfish (Ictalurus punctatus))
[5] = target: NITR11 V region protein (novel immune-type receptor 11, Ig V domain) (channel catfish (Ictalurus punctatus))

NITR10 (D50N) V region protein (domain or fragment)
stoichiometry N [1]: 2

NITR10 V region protein (novel immune-type receptor 10, Ig V domain) (domain or fragment)
stoichiometry N [2]: 2

NITR11 (N50D) V region protein (domain or fragment)
stoichiometry N [3]: 2

NITR11 V domain and membrane proximal stalk region, disulfide-linked homodimer (domain or fragment)
stoichiometry N [4]: 2

NITR11 V region protein (novel immune-type receptor 11, Ig V domain) (domain or fragment)
stoichiometry N [5]: 2
